Data reported in US12630600B2 (MEDIMMUNE LIMITED, priority 2022, dated 2026).
Starred links: 1 amine or outer side, 2 acyl side, 3 side chain; linkers in the order of their positions; H or OH if unused. Non-standard residues stand in square brackets, D forms with d. Groups on a side chain read outwards from the residue. No end group written: not given here. *: point of attachment. C20 diacid = O=C(O)CCCCCCCCCCCCCCCCCCC(=O)*; C18 diacid = O=C(O)CCCCCCCCCCCCCCCCC(=O)*; γGlu = O=C(O)[C@H](CCC(=O)[*:2])N[*:1]; αMeF = C[C@](N)(Cc1ccccc1)C(=O)O; AEEA = NCCOCCOCC(=O)O; Aib = CC(C)(N)C(=O)O

B1: Peptide 234 (peptide)
peptide: H[Aib]HGS[αMeF]TSDVSK[αMeF]LDSRAAK([AEEA-AEEA-γGlu-γGlu-C20 diacid])D[αMeF]VE[Aib]IANT-NH2
modifications: N-terminus assumed
SMILES: CC[C@H](C)[C@H](NC(=O)C(C)(C)NC(=O)[C@H](CCC(=O)O)NC(=O)[C@@H](NC(=O)[C@](C)(Cc1ccccc1)NC(=O)[C@H](CC(=O)O)NC(=O)[C@H](CCCCNC(=O)COCCOCCNC(=O)COCCOCCNC(=O)CC[C@H](NC(=O)CC[C@H](NC(=O)CCCCCCCCCCCCCCCCCCC(=O)O)C(=O)O)C(=O)O)NC(=O)[C@H](C)NC(=O)[C@H](C)NC(=O)[C@H](CCCNC(=N)N)NC(=O)[C@H](CO)NC(=O)[C@H](CC(=O)O)NC(=O)[C@H](CC(C)C)NC(=O)[C@](C)(Cc1ccccc1)NC(=O)[C@H](CCCCN)NC(=O)[C@H](CO)NC(=O)[C@@H](NC(=O)[C@H](CC(=O)O)NC(=O)[C@H](CO)NC(=O)[C@@H](NC(=O)[C@](C)(Cc1ccccc1)NC(=O)[C@H](CO)NC(=O)CNC(=O)[C@H](Cc1c[nH]cn1)NC(=O)C(C)(C)NC(=O)[C@@H](N)Cc1c[nH]cn1)[C@@H](C)O)C(C)C)C(C)C)C(=O)N[C@@H](C)C(=O)N[C@@H](CC(N)=O)C(=O)N[C@H](C(N)=O)[C@@H](C)O
B2: Peptide 225 (peptide)
peptide: H[Aib]HGS[αMeF]TSDVSK[αMeF]LDSRAAK([AEEA-AEEA-γGlu-C18 diacid])D[αMeF]VQ[Aib]IANT-NH2
modifications: N-terminus assumed
SMILES: CC[C@H](C)[C@H](NC(=O)C(C)(C)NC(=O)[C@H](CCC(N)=O)NC(=O)[C@@H](NC(=O)[C@](C)(Cc1ccccc1)NC(=O)[C@H](CC(=O)O)NC(=O)[C@H](CCCCNC(=O)COCCOCCNC(=O)COCCOCCNC(=O)CC[C@H](NC(=O)CCCCCCCCCCCCCCCCC(=O)O)C(=O)O)NC(=O)[C@H](C)NC(=O)[C@H](C)NC(=O)[C@H](CCCNC(=N)N)NC(=O)[C@H](CO)NC(=O)[C@H](CC(=O)O)NC(=O)[C@H](CC(C)C)NC(=O)[C@](C)(Cc1ccccc1)NC(=O)[C@H](CCCCN)NC(=O)[C@H](CO)NC(=O)[C@@H](NC(=O)[C@H](CC(=O)O)NC(=O)[C@H](CO)NC(=O)[C@@H](NC(=O)[C@](C)(Cc1ccccc1)NC(=O)[C@H](CO)NC(=O)CNC(=O)[C@H](Cc1c[nH]cn1)NC(=O)C(C)(C)NC(=O)[C@@H](N)Cc1c[nH]cn1)[C@@H](C)O)C(C)C)C(C)C)C(=O)N[C@@H](C)C(=O)N[C@@H](CC(N)=O)C(=O)N[C@H](C(N)=O)[C@@H](C)O
B3: Peptide 210 (peptide)
peptide: H[Aib]HGS[αMeF]TSDVSK[αMeF]LDSQAAK([AEEA-AEEA-γGlu-γGlu-C18 diacid])DFVEWIANT-NH2
modifications: N-terminus assumed
SMILES: CC[C@H](C)[C@H](NC(=O)[C@H](Cc1c[nH]c2ccccc12)NC(=O)[C@H](CCC(=O)O)NC(=O)[C@@H](NC(=O)[C@H](Cc1ccccc1)NC(=O)[C@H](CC(=O)O)NC(=O)[C@H](CCCCNC(=O)COCCOCCNC(=O)COCCOCCNC(=O)CC[C@H](NC(=O)CC[C@H](NC(=O)CCCCCCCCCCCCCCCCC(=O)O)C(=O)O)C(=O)O)NC(=O)[C@H](C)NC(=O)[C@H](C)NC(=O)[C@H](CCC(N)=O)NC(=O)[C@H](CO)NC(=O)[C@H](CC(=O)O)NC(=O)[C@H](CC(C)C)NC(=O)[C@](C)(Cc1ccccc1)NC(=O)[C@H](CCCCN)NC(=O)[C@H](CO)NC(=O)[C@@H](NC(=O)[C@H](CC(=O)O)NC(=O)[C@H](CO)NC(=O)[C@@H](NC(=O)[C@](C)(Cc1ccccc1)NC(=O)[C@H](CO)NC(=O)CNC(=O)[C@H](Cc1c[nH]cn1)NC(=O)C(C)(C)NC(=O)[C@@H](N)Cc1c[nH]cn1)[C@@H](C)O)C(C)C)C(C)C)C(=O)N[C@@H](C)C(=O)N[C@@H](CC(N)=O)C(=O)N[C@H](C(N)=O)[C@@H](C)O
B4: Peptide 228 (peptide)
peptide: H[Aib]HGS[αMeF]TSDVSK[αMeF]LDSRAAKD[αMeF]IA[Aib]IANT-NH2
modifications: not fully specified (residue 20)
B5: Peptide 230 (peptide)
peptide: H[Aib]HGS[αMeF]TSDVSK[αMeF]LDSRAAKD[αMeF]VQ[Aib]IANT-NH2
modifications: not fully specified (residue 20)
B6: Peptide 227 (peptide)
peptide: H[Aib]HGS[αMeF]TSDVSK[αMeF]LDSRAAK([AEEA-AEEA-γGlu-C18 diacid])D[αMeF]VE[Aib]IANT-NH2
B7: Peptide 232 (peptide)
peptide: H[Aib]HGS[αMeF]TSDVSK[αMeF]LDSRAAKD[αMeF]VQ[Aib]IANT-NH2
modifications: not fully specified (residue 20)
B8: Peptide 221 (peptide)
peptide: H[Aib]HGS[αMeF]TSDVSK[αMeF]LDSR[Aib]AK([AEEA-AEEA-γGlu-γGlu-C20 diacid])DFVQ[Aib]IANT-NH2
modifications: N-terminus assumed
SMILES: CC[C@H](C)[C@H](NC(=O)C(C)(C)NC(=O)[C@H](CCC(N)=O)NC(=O)[C@@H](NC(=O)[C@H](Cc1ccccc1)NC(=O)[C@H](CC(=O)O)NC(=O)[C@H](CCCCNC(=O)COCCOCCNC(=O)COCCOCCNC(=O)CC[C@H](NC(=O)CC[C@H](NC(=O)CCCCCCCCCCCCCCCCCCC(=O)O)C(=O)O)C(=O)O)NC(=O)[C@H](C)NC(=O)C(C)(C)NC(=O)[C@H](CCCNC(=N)N)NC(=O)[C@H](CO)NC(=O)[C@H](CC(=O)O)NC(=O)[C@H](CC(C)C)NC(=O)[C@](C)(Cc1ccccc1)NC(=O)[C@H](CCCCN)NC(=O)[C@H](CO)NC(=O)[C@@H](NC(=O)[C@H](CC(=O)O)NC(=O)[C@H](CO)NC(=O)[C@@H](NC(=O)[C@](C)(Cc1ccccc1)NC(=O)[C@H](CO)NC(=O)CNC(=O)[C@H](Cc1c[nH]cn1)NC(=O)C(C)(C)NC(=O)[C@@H](N)Cc1c[nH]cn1)[C@@H](C)O)C(C)C)C(C)C)C(=O)N[C@@H](C)C(=O)N[C@@H](CC(N)=O)C(=O)N[C@H](C(N)=O)[C@@H](C)O
B9: Peptide 213 (peptide)
peptide: H[Aib]HGS[αMeF]TSDVSK[αMeF]LDSRAAK([AEEA-AEEA-γGlu-γGlu-C20 diacid])DFVEWIANT-NH2
modifications: N-terminus assumed
SMILES: CC[C@H](C)[C@H](NC(=O)[C@H](Cc1c[nH]c2ccccc12)NC(=O)[C@H](CCC(=O)O)NC(=O)[C@@H](NC(=O)[C@H](Cc1ccccc1)NC(=O)[C@H](CC(=O)O)NC(=O)[C@H](CCCCNC(=O)COCCOCCNC(=O)COCCOCCNC(=O)CC[C@H](NC(=O)CC[C@H](NC(=O)CCCCCCCCCCCCCCCCCCC(=O)O)C(=O)O)C(=O)O)NC(=O)[C@H](C)NC(=O)[C@H](C)NC(=O)[C@H](CCCNC(=N)N)NC(=O)[C@H](CO)NC(=O)[C@H](CC(=O)O)NC(=O)[C@H](CC(C)C)NC(=O)[C@](C)(Cc1ccccc1)NC(=O)[C@H](CCCCN)NC(=O)[C@H](CO)NC(=O)[C@@H](NC(=O)[C@H](CC(=O)O)NC(=O)[C@H](CO)NC(=O)[C@@H](NC(=O)[C@](C)(Cc1ccccc1)NC(=O)[C@H](CO)NC(=O)CNC(=O)[C@H](Cc1c[nH]cn1)NC(=O)C(C)(C)NC(=O)[C@@H](N)Cc1c[nH]cn1)[C@@H](C)O)C(C)C)C(C)C)C(=O)N[C@@H](C)C(=O)N[C@@H](CC(N)=O)C(=O)N[C@H](C(N)=O)[C@@H](C)O
B10: Peptide 215 (peptide)
peptide: H[Aib]HGS[αMeF]TSDVSK[αMeF]LDSRAAK([AEEA-AEEA-γGlu-C20 diacid])D[αMeF]VQWIANT-NH2
modifications: N-terminus assumed
SMILES: CC[C@H](C)[C@H](NC(=O)[C@H](Cc1c[nH]c2ccccc12)NC(=O)[C@H](CCC(N)=O)NC(=O)[C@@H](NC(=O)[C@](C)(Cc1ccccc1)NC(=O)[C@H](CC(=O)O)NC(=O)[C@H](CCCCNC(=O)COCCOCCNC(=O)COCCOCCNC(=O)CC[C@H](NC(=O)CCCCCCCCCCCCCCCCCCC(=O)O)C(=O)O)NC(=O)[C@H](C)NC(=O)[C@H](C)NC(=O)[C@H](CCCNC(=N)N)NC(=O)[C@H](CO)NC(=O)[C@H](CC(=O)O)NC(=O)[C@H](CC(C)C)NC(=O)[C@](C)(Cc1ccccc1)NC(=O)[C@H](CCCCN)NC(=O)[C@H](CO)NC(=O)[C@@H](NC(=O)[C@H](CC(=O)O)NC(=O)[C@H](CO)NC(=O)[C@@H](NC(=O)[C@](C)(Cc1ccccc1)NC(=O)[C@H](CO)NC(=O)CNC(=O)[C@H](Cc1c[nH]cn1)NC(=O)C(C)(C)NC(=O)[C@@H](N)Cc1c[nH]cn1)[C@@H](C)O)C(C)C)C(C)C)C(=O)N[C@@H](C)C(=O)N[C@@H](CC(N)=O)C(=O)N[C@H](C(N)=O)[C@@H](C)O
B11: Peptide 222 (peptide)
peptide: H[Aib]HGS[αMeF]TSDVSK[αMeF]LDSRAAKDFVQ[Aib]IANT-NH2
modifications: not fully specified (residue 20)

target: human glucagon receptor (human, UniProt P47871); experiment: cell-based or functional assay

Binder | hGluc-R EC50 (pM)
B1 | 1290
B2 | 145
B3 | 93.7
B4 | 177
B5 | 37.1
B6 | 27.2
B7 | 1020
B8 | 123
B9 | 141
B10 | 2610
B11 | 244

target: human GLP-1 receptor (human, UniProt P43220); experiment: cell-based or functional assay

Binder | hGLP-1R EC50 (pM)
B1 | 68
B2 | 34.9
B3 | 156
B4 | 200
B5 | 170
B6 | 70.5
B7 | 110
B8 | 122
B9 | 534
B10 | 7620
B11 | 151
